Tests used:
[1] = target: T1, PorX-C-His6 (Porphyromonas gingivalis (33277?)) (UniProt B2RJJ3); assay: EMSA; details: EMSA: 10 mM Tris-HCl pH 7.5, 1 mM EDTA, 5 mM DTT, 10 mM NaCl, 1 mM MgCl2, 5% glycerol, room temperature, 30 min
T1 sequence: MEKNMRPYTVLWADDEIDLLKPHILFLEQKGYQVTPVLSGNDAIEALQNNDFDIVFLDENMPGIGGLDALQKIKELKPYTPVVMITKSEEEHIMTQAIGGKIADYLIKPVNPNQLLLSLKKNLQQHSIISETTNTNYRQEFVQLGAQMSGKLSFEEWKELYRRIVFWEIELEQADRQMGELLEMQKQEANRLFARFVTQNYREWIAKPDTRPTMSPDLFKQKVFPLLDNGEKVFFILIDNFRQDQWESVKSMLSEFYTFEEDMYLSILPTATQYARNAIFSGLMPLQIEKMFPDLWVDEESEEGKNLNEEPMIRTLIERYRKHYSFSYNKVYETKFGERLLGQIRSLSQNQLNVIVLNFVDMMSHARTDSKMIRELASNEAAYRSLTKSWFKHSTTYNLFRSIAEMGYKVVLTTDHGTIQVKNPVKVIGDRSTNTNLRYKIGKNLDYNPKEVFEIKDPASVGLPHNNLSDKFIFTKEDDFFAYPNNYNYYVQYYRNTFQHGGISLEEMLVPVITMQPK

[2] = target: T1, PorX-C-His6 (Porphyromonas gingivalis (33277?)); assay: DNase I footprinting; details: EMSA: 10 mM Tris-HCl pH 7.5, 1 mM EDTA, 5 mM DTT, 10 mM NaCl, 1 mM MgCl2, 5% glycerol, room temperature, 30 min

In the case of “CCGAGTACGTTTACCCCGGCCCGATACAGTTCTTCGGCCCCGAACATGTATGCGATAGCCCCACGATGACACTCCGCTTGGAAAAGAACGATCGCTGACTCTTCCGCTGCATTAGTCGGGTTGATAAGCAGTTGCTTCTGTTTGTTTTGTCGAAAAAAATGTTTTTCTTTGCAATAAGTCTCATTTAAAAGAATCGCCTATCGACGCATATCTACCTTCTGAACAATAAATAAAGAGGATTCTCCTATGAGCAGTTTCCACAAGCTGACTGATGA (double strand) [T1 sigP promoter fragment (275 bp)]”, the binding [1] is reported as “binds” and the binding [2] is reported as “binds”.
